Experimental findings from patent US20250074980A1 (BRIGHAM AND WOMEN S HOSPITAL, published 2025) are described below.

Positions count from the first letter of the chain named. Numbers in names are those of the source. Like-named read-outs stand apart in the source and are kept apart here.

Assay [1] concerns the target T1, CEACAM5 on transfected HeLa cells (human, UniProt P06731 35-685).
T1 construct: whole, on cells; also called HeLa-CEACAM5; HeLa C5
T1 sequence (looked up): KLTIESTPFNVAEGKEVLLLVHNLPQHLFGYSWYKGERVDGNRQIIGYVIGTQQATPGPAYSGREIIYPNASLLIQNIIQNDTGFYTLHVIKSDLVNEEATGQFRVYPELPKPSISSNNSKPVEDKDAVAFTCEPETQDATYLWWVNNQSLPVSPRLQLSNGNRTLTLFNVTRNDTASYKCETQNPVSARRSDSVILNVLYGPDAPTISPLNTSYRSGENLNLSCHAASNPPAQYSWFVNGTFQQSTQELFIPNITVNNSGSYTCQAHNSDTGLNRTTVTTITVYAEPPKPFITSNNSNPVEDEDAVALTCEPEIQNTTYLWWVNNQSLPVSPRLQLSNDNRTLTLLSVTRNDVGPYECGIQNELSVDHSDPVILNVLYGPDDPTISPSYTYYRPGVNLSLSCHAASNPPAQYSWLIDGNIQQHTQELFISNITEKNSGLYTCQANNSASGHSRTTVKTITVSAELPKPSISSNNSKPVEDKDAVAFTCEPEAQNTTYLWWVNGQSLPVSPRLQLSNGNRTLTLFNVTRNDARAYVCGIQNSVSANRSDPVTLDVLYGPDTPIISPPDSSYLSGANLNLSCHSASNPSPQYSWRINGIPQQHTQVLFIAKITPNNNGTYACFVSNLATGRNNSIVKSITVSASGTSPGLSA
Description: flow cytometry, HeLa-CEACAM5 transfectants, % staining, stacked bars. An excerpt:
FIG. 11 illustrates the binding selectivity of different affinity-matured CEACAM1 antibodies. […] HELA cells were transfected with vector alone (HeLa-Neo) or vectors expressing CEACAM1, CEACAM3, CEACAM5, or CEACAM6, respectively, and stained with the indicated antibodies. […] MOPC=mouse IgG1 control antibody. Mouse antibodies as positive control for transfected CEACAM isoforms: Col-1=CEACAM3 and CEACAM5 antibody. 9A6=CEACAM6 antibody. T84.1=CEACAM cross-reactive antibody and T84.66=CEACAM5 antibody. Only 2nd FITC=No primary antibody, only secondary FITC conjugated antibody. […] Data for affinity-matured antibodies 9B3_8H3/Vκ8 S29A, 8H3_9B3/CP08_E05, and 8H3_9C2/CPO08_F05, as well as data for CEACAM8 antibody 80H3 were omitted from the FIG. due to an unusually high background signal.

The target of assay [2] is T2, His-tagged CEACAM1 (human, UniProt P13688 35-428).
T2 construct: 45 kDa SPR analyte; also called CEACAM1-HIS; CEACAM1 analyte
T2 sequence: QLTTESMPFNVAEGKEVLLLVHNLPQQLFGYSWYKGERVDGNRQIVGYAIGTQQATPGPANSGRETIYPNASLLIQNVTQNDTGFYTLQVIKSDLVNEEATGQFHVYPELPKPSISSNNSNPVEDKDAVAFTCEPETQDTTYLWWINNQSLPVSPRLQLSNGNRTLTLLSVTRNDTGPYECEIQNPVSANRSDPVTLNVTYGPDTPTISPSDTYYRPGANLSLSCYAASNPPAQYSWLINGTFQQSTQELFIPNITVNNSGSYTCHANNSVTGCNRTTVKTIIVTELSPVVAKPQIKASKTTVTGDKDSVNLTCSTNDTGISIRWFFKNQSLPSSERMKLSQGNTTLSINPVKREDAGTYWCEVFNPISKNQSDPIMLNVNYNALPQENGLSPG
As to the kind of experiment: SPR single-cycle, supernatant IgG captured. In outline: (§1)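 Humanized, affinity-matured IgGs from crude supernatant (0.5 μg/ml in HBS-P+) captured on Protein A to ~100 RU. Single-cycle kinetics: CEACAM1 at three concentrations, 70–280 nM two-fold, 80 μl/min, 80 s association each, 150 s dissociation. Reference-channel and blank-run subtraction applied.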

Assay [3] has as its target T2, His-tagged CEACAM1. Description: SPR single-cycle, supernatant IgG captured. In outline: as §1
This is another data set of the same source.

Assay [4] has as its target T3, CEACAM5 (recombinant protein) (human, UniProt P06731 35-685).
T3 construct: construct not described
T3 sequence (looked up): T1 sequence (looked up)
Description: SPR single-cycle kinetics, antibody captured on Protein A, CEACAM-5 injected at three rising concentrations [Cont.]. As to the method:
In order to assess the binding of the humanized, affinity matured reformatted lead IgGs, single-cycle kinetics analysis was performed on crude supernatants using a Biacore T200 running Biacore T200 Control Software V2.0.1 and Biacore T200 Evaluation Software V3.0. Antibodies were diluted in HBS-P+ to a final concentration of 0.5 μg/ml. At the start of each cycle, antibodies were loaded onto Fc2, Fc3 and Fc4 of the Protein A chip. IgGs were captured at a flow rate of 10 μl/min to give an immobilisation level (RL) of ˜100 RU (a level calculated to obtain a Rₘₐₓ of ˜50-150 RU once the analyte is bound). The surface was then allowed to stabilize. Single-cycle kinetics data was obtained with CEACAM1 as the analyte at a flow rate of 80 μl/min to minimize any potential mass transfer effects. Multiple repeats with the parent (VH1/Vκ8 S29A) antibody were performed to check the stability of the surface and analyte over the kinetic cycles. The signal from the reference channel Fc1 (no antibody) was subtracted from that of Fc2, Fc3 and Fc4 to correct for differences in non-specific binding to the reference surface. […] The association phase for the three injections of increasing concentrations of CEACAM1 was monitored for 80 seconds each time and a single dissociation phase was measured for 150 seconds following the last injection of CEACAM1. […]

B1: VH1/Vκ8 S29A (antibody, IgG4, V domains shown)
VH: EVQLLESGGGLVQPGGSLRLSCAASGFIFSSHGMSWVRQAPGKGLEWVATISSGGTYTYYPDSVKGRFTISRDNSKNTLYLQMNSLKAEDTAMYYCARHDFDYDAAWFAYWGQGTLVTVSS
VL: EIVLTQSPATLSLSPGERATLSCRANSAVSYMYWYQQKPGQAPRPWIYLTSNRATGVPARFSGSGSGTDYTLTISSLEPEDFAVYYCQQWSSNPPTFGQGTKLEIK
notes: IgG4 (S241P), kappa; also called Parent; Parent (VH1/Vκ8 S29A)
Turning to B1, the binding result in assay [1] is reported as “no binding”. In assay [2], the Kd is 590 nM, the koff stood at 0.057 s⁻¹, the kon is 95000 M⁻¹ s⁻¹ and the “relative KD to parent” value was 1. Besides, in assay [3], the equilibrium dissociation constant (Kd) is 560 nM, the off-rate (koff) was 0.053 s⁻¹, the kon is 94000 M⁻¹ s⁻¹ and the “relative KD to parent” value came out at 1.

B2: CP08H03/Vκ8 S29A (antibody, IgG4, V domains shown)
VH: B1 VH with D104F, A105P, A106Y, Y110H
VL: B1 VL
notes: IgG4 (S241P), kappa; also called CP08_H03/Parent VL; CP08_H03/Parental
For the molecule B2, the binding result in assay [4] is listed as “no binding”. In addition, in assay [2], the dissociation constant Kd was found to be 45 nM, the dissociation rate constant (koff) was 0.0076 s⁻¹, the kon came out at 180000 M⁻¹ s⁻¹ and the “relative KD to parent” value was found to be 13.7.

B3: CP08H03/CP08F05 (antibody, V domains shown)
VH: B1 VH with D104F, A105P, A106Y, Y110H
VL: B1 VL with S91T
notes: IgG4 (S241P), kappa
With B3, the binding result in assay [1] and in assay [4] was “no binding” throughout.
